Reference: patent US20250277196A1, “EPSPS MUTANTS AND METHOD OF ITS USES” (CROPEDIT BIOTECHNOLOGY INC., priority 2021, published 2025)
Where a chain is given by its changes, count along the chain named. Names and notes keep the numbering of the source.

B1: OsTIPS: mutated rice EPSPS with mutation T173I and P177S (SEQ ID NO:35); same mutation type as glyphosate-resistant corn GA21 (protein)
chain: MAAKAEEIVLQPIREISGAVQLPGSKSLSNRILLLSALSEGTTVVDNLLNSEDVHYMLEALKALGLSVEADKVAKRAVVVGCGGKFPVEKDAKEEVQLFLGNAGIAMRSLTAAVTAAGGNATYVLDGVPRMRERPIGDLVVGLKQLGADVDCFLGTECPPVRVKGIGGLPGGKVKLSGSISSQYLSALLMAAPLALGDVEIEIIDKLISIPYVEMTLRLMERFGVKAEHSDSWDRFYIKGGQKYKSPGNAYVEGDASSASYFLAGAAITGGTVTVQGCGTTSLQGDVKFAEVLEMMGAKVTWTDTSVTVTGPPREPYGKKHLKAVDVNMNKMPDVAMTLAVVALFADGPTAIRDVASWRVKETERMVAIRTELTKLGASVEEGPDYCIITPPEKLNITAIDTYDDHRMAMAFSLAACADVPVTIRDPGCTRKTFPNYFDVLSTFVRN
modifications: This sequence is synthesized in lab.
notes: same mutation type as glyphosate-resistant corn GA21
B2: 1-552: rice EPSPS with G172A, P177S, K399N, V403A and T466S mutations (protein)
chain: B1 chain with G104A, I105T, K331N, V335A
modifications: This sequence is synthesized in lab.
notes: rice EPSPS with G172A, P177S, K399N, V403A and T466S mutations
B3: 1-386: rice EPSPS with G172A, P177S, V403A and F502V mutations (protein)
chain: B1 chain with G104A, I105T, V335A, F434V
modifications: This sequence is synthesized in lab.
notes: rice EPSPS with G172A, P177S, V403A and F502V mutations
B4: 1-98: rice EPSPS with A73T, G172A, P177S and V403A mutations (protein)
chain: B1 chain with A5T, G104A, I105T, V335A
modifications: This sequence is synthesized in lab.
notes: rice EPSPS with A73T, G172A, P177S and V403A mutations
B5: SEQ ID NO:23: rice EPSPS with A73S, G172A, P177S, L214F and V403A mutations; sample code not printed (protein)
chain: B1 chain with A5S, G104A, I105T, L146F, V335A
modifications: This sequence is synthesized in lab.
B6: 2-46: rice EPSPS with G172A, P177S, N246D and V403A mutations (protein)
chain: B1 chain with G104A, I105T, N249D, V335A
modifications: This sequence is synthesized in lab.
notes: rice EPSPS with G172A, P177S, N246D and V403A mutations
B7: 2-47: rice EPSPS with G172A, M175A, P177S, M258L, K356E, V403A and F512I mutations (protein)
chain: B1 chain with G104A, I105T, M107A, M190L, K288E, V335A, F444I
modifications: This sequence is synthesized in lab.
notes: rice EPSPS with G172A, M175A, P177S, M258L, K356E, V403A and F512I mutations
B8: 2-5: rice EPSPS with E163K, G172A, P177S, A216V, L253M, H389R and V403A mutations (protein)
chain: B1 chain with E95K, G104A, I105T, A148V, L185M, H321R, V335A
modifications: This sequence is synthesized in lab.
notes: rice EPSPS with E163K, G172A, P177S, A216V, L253M, H389R and V403A mutations
B9: 1-246: rice EPSPS with A145G, G172A, P177S, V403A, T442S and D472E mutations (protein)
chain: B1 chain with A77G, G104A, I105T, V335A, T374S, D404E
modifications: This sequence is synthesized in lab.
notes: rice EPSPS with A145G, G172A, P177S, V403A, T442S and D472E mutations
B10: 1-139: rice EPSPS with A73T, E86G, G172A, P177S and V403A mutations (protein)
chain: B1 chain with A5T, E89G, G104A, I105T, V335A
modifications: This sequence is synthesized in lab.
notes: rice EPSPS with A73T, E86G, G172A, P177S and V403A mutations
B11: 1-411: rice EPSPS with G172A, P177S, Y252F and V403A mutations (protein)
chain: B1 chain with G104A, I105T, Y184F, V335A
modifications: This sequence is synthesized in lab.
notes: rice EPSPS with G172A, P177S, Y252F and V403A mutations
B12: 1-68: rice EPSPS with A70V, G172A, P177S, V403A and R514S mutations (protein)
chain: B1 chain with A2V, G104A, I105T, V335A, R446S
modifications: This sequence is synthesized in lab.
notes: rice EPSPS with A70V, G172A, P177S, V403A and R514S mutations
B13: 1-599: rice EPSPS with A73G, L134F, G172A, P177S, G265V, S374R and V403A mutations (protein)
chain: B1 chain with A5G, L66F, G104A, I105T, G197V, S306R, V335A
modifications: This sequence is synthesized in lab.
notes: rice EPSPS with A73G, L134F, G172A, P177S, G265V, S374R and V403A mutations
B14: 1-547: rice EPSPS with E137D, G172A, P177S, L253M and V403A mutations (protein)
chain: B1 chain with E69D, G104A, I105T, L185M, V335A
modifications: This sequence is synthesized in lab.
notes: rice EPSPS with E137D, G172A, P177S, L253M and V403A mutations
B15: 3-36: rice EPSPS with V113M, G172A, P177S and V403A mutations (protein)
chain: B1 chain with V45M, G104A, I105T, V335A
modifications: This sequence is synthesized in lab.
notes: rice EPSPS with V113M, G172A, P177S and V403A mutations
B16: 3-33: rice EPSPS with G172A, P177S, V208A, L264H, V403A and R514K mutations (protein)
chain: B1 chain with G104A, I105T, V140A, L196H, V335A, R446K
modifications: This sequence is synthesized in lab.
notes: rice EPSPS with G172A, P177S, V208A, L264H, V403A and R514K mutations
B17: SEQ ID NO:19: rice EPSPS with A73K, D114H, V136M, K161E, G172A, P177S, A260T and V403A mutations; sample code not printed (protein)
chain: B1 chain with A5K, D46H, V68M, K93E, G104A, I105T, A192T, V335A
modifications: This sequence is synthesized in lab.

System: Escherichia coli DH5α with EPSPS gene knocked out
Test: Resistance test of rice EPSPS mutants from error-prone PCR on OsGPV: colony growth on medium with 0, 100 mM and 125 mM glyphosate (FIG. 7)
Assay type: cell-based
Details: 100 mM glyphosate
Source text: In order to further improve the glyphosate resistance and develop highly resistant rice EPSPS mutants that can meet commercial production requirements, we used OsGPV as a template to perform random mutations, with high-concentration glyphosate screening, and to identify EPSPS mutant that can improve the glyphosate resistance.
We used OsGPV(SEQ ID NO:6) as a template to perform error-prone PCR. (With GeneMorph II Random Mutagenesis Kit, #200550, Agilent Technologies).
a) The recovered product was digested with EcoRI and SbfI, and then ligated to the pKED2 vector after the same double digestion with T4 DNA ligase to obtain the ligation product to obtain the vector carrying the rice EPSPS gene mutant.
b) Transformed the above vector into Escherichia coli DH5α with EPSPS gene knocked out. The transformation steps were as follows: add the above ligation product to 50 μl E. coli DH5α competent cells with EPSPS gene knocked out, mix well and incubate on ice for 30 min, then after a heat shock at 42° C. for 90 s, immediately place it in an ice bath on ice for 2 min after taking it out. After the ice bath, add 500 μl of LB liquid medium and resuscitate at 37° C. at 180 r/min for 45 min. The transformed Escherichia coli was a mutant library expressing rice EPSPS mutant genes obtained on the template basis of OsGPV.
5) Centrifuged the transformed product obtained above at 3000 rpm for 5 min, discarded the supernatant, then resuspended it in 1 ml M9 liquid medium, added 200 μl M9 liquid medium to resuspend and inoculated it on an M9 plate containing 75 mM glyphosate. Incubated at 37 degrees for 24 hours.
Pick and saved the single colonies grown in the above screening plates, and conduct further resistance identification and sequencing
ii. Resistance test of rice mutants. In this example, the wild-type rice EPSPS gene OsWT, the most widely used commercial glyphosate-resistant gene CP4EPSPS, the rice mutantOsTIPS, which had the same mutation type with commercial glyphosate-resistant corn GA21, and the rice mutant OsGPV with the highly glyphosate-resistant rice EPSPS mutant gene obtained in this study were transformed as control, and the newly obtained rice EPSPS mutants were transformed as the experimental group, and the glyphosate resistance among the control and the mutants were compared. The monoclonal bacteria of the control group and the experimental group were respectively inoculated into a medium containing 0, 100 mM and 125 mM glyphosate, and the growth of colonies in each group was observed.

Molecule	colony growth under 100 mM glyphosate
B1	did not grow

Same assay, conditions: 125 mM glyphosate pressure, FIG. 7

Molecule	colony growth status compared with OsGPV
B2	significantly higher than OsGPV
B3	significantly higher than OsGPV
B4	significantly higher than OsGPV
B5	significantly higher than OsGPV
B6	significantly higher than OsGPV
B7	significantly higher than OsGPV
B8	significantly higher than OsGPV
B9	significantly higher than OsGPV
B10	significantly higher than OsGPV
B11	significantly higher than OsGPV
B12	significantly higher than OsGPV
B13	significantly higher than OsGPV
B14	significantly higher than OsGPV
B15	significantly higher than OsGPV
B16	significantly higher than OsGPV
B17	significantly higher than OsGPV
